The test has as its target purified full-length Polθ (UniProt O75417 1-2590). Briefly: co-IP.

purified full-length Polθ, sequence (O75417 whole entry): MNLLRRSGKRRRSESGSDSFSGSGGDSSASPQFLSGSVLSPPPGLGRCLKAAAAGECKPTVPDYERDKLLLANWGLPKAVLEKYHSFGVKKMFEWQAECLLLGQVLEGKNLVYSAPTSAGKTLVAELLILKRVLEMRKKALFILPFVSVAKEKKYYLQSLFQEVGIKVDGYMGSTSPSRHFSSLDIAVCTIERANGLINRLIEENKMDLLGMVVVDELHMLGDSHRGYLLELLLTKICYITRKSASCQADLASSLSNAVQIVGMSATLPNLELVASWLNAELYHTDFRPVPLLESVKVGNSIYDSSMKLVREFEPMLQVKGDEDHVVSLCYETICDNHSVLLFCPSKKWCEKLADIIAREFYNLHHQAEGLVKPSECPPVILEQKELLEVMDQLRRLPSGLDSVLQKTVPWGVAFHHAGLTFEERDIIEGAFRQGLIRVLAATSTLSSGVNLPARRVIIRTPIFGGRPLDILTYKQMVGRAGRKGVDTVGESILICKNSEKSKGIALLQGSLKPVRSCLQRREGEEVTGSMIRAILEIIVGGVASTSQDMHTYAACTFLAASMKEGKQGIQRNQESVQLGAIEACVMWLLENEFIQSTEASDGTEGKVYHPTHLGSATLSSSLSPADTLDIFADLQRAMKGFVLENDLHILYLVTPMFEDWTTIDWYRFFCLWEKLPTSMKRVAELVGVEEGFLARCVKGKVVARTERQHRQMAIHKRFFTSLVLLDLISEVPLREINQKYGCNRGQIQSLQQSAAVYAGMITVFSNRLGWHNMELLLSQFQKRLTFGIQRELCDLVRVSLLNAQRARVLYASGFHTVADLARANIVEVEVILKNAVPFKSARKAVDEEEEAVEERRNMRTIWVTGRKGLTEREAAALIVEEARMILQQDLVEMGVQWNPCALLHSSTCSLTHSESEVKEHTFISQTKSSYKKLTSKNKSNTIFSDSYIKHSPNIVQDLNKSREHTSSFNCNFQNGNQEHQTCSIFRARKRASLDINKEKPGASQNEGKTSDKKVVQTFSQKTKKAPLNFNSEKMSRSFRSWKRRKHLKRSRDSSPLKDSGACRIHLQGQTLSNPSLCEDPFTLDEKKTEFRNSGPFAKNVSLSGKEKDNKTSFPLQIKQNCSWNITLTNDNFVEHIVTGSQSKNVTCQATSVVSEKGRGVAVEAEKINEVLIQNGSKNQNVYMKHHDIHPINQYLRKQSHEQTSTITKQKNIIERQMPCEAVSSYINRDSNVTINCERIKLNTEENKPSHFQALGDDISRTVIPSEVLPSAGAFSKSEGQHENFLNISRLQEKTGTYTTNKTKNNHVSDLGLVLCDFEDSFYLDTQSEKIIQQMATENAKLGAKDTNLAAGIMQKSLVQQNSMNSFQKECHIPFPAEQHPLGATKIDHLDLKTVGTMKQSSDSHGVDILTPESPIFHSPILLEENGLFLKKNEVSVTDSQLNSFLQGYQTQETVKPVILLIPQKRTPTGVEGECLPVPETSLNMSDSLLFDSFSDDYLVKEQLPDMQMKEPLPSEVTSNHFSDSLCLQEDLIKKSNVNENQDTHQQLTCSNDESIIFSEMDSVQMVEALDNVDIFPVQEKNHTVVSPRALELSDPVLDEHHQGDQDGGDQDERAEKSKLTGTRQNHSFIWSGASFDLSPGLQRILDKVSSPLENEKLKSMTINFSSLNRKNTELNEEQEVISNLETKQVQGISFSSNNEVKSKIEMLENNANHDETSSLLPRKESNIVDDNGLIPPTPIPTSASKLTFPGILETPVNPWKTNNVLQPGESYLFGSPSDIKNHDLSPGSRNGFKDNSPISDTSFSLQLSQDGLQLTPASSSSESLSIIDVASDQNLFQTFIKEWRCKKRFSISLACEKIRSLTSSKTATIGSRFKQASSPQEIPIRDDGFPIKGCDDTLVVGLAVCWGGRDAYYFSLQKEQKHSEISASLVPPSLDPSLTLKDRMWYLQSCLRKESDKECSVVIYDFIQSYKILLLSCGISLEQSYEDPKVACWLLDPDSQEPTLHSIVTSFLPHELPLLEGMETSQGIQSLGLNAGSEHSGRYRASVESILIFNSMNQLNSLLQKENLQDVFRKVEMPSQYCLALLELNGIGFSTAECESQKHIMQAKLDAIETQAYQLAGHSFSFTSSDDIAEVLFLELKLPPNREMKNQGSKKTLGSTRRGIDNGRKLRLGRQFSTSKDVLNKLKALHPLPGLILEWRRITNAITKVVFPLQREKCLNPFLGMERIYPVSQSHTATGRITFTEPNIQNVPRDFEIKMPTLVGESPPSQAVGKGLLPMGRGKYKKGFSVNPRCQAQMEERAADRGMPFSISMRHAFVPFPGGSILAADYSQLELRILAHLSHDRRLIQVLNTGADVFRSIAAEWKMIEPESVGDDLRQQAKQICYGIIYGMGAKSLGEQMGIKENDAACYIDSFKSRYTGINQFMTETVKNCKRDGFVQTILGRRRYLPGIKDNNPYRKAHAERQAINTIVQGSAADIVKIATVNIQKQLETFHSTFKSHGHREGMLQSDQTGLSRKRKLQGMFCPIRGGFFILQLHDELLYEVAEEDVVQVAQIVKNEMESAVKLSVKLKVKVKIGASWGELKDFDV

B1: purified recombinant human RHINO protein (natural protein, UniProt Q9BSD3 1-238, looked up)
chain: MPPRKKRRQPSQKAPLLFHQQPLEGPKHSCASTQLPITHTRQVPSKPIDHSTITSWVSPDFDTAAGSLFPAYQKHQNRARHSSRKPTTSKFPHLTFESPQSSSSETLGIPLIRECPSESEKDVSRRPLVPVLSPQSCGNMSVQALQSLPYVFIPPDIQTPESSSVKEELIPQDQKENSLLSCTLHTGTPNSPEPGPVLVKDTPEDKYGIKVTWRRRQHLLAYLRERGKLSRSQFLVKS
As for B1, the binding result is reported as “binds”.

The record behind these values is paper doi:10.1101/2023.03.16.532763 (bioRxiv, 2023).
